Assay [1] addresses T1, full-length, wild-type human KIT (human, UniProt P10721 26-976). Briefly: cell-based or functional assay.
The target of assay [2] is T2, recombinant KIT D4/D5 polypeptide (D4/D5 region of human KIT, V308 to H515, with 5xHis tag) (human, UniProt P10721 26-519).
T2 construct: also called recombinant antigen; recombinant IG domain four and five of the extracellular region of KIT
The experiment in a line: binding assays on the D4/D5 region of human KIT (solid phase ELISA); IgG version of Fab Ab1 (Dyax reformatting), Example 2. Background: ELISA stands for enzyme-linked immunosorbent assay.

Assay [3] addresses T1, full-length, wild-type human KIT. The experiment in a line: immunofluorescence staining with Ab1-Alexa488 on CHO/KIT and NIH3T3/KIT cells, confocal microscopy. How it is done:
Immunofluorescence staining assays were carried to determine if antibody Ab1 was internalized by cells. The immunofluorescence staining assays were carried out essentially as described below. Materials and reagents for the immunofluorescence assays include the following: [0745] Tissue culture slides: Poly-D-Lysine coated four or eight well chamber slide [0746] Antibody: Antibody Ab1 conjugated with the fluorescent dye Alexa-488 (Invitrogen) [0747] Fixative: 4% paraformaldehyde; store 40% PFA microscopy grade in fridge and dilute 1:10 with PBS just before use [0748] Mounting media: Prolong Gold antifade+DAPI [0749] CHO cells engineered to express exogenous human, wild-type KIT (full-length) (“CHO/KIT”) [0750] NIH3T3 cells engineered to express exogenous human, wild-type KIT (full-length) [0751] (“NIH3T3/KIT”)
15,000 to 30,000 CHO/KIT cells or NIH3T3/KIT cells were seeded into each well of the tissue culture slide. The cells were cultivated for at least 24 hrs before starvation in media containing no fetal bovin serum overnight. Ab1-Alexa488 was diluted in starvation media containing 1% bovine serum albumin and pipetted onto the cell layer. 5 to 60 min later, cell layers were washed once with PBS (room temperature). Cell layers were fixed for 18 min with fixative at room temperature, and were washed 3 times with PBS. […] Internalization of the antibody was analyzed by confocal microscopy.

Here are results for two molecules from patent publication US20130011406A1 (KOLLTAN PHARMACEUTICALS, published 2013).

One may read the EC50 as the concentration that produces a half-maximal response.

T1 sequence (P10721 other isoform, or with tags, fused parts or gaps limits assumed): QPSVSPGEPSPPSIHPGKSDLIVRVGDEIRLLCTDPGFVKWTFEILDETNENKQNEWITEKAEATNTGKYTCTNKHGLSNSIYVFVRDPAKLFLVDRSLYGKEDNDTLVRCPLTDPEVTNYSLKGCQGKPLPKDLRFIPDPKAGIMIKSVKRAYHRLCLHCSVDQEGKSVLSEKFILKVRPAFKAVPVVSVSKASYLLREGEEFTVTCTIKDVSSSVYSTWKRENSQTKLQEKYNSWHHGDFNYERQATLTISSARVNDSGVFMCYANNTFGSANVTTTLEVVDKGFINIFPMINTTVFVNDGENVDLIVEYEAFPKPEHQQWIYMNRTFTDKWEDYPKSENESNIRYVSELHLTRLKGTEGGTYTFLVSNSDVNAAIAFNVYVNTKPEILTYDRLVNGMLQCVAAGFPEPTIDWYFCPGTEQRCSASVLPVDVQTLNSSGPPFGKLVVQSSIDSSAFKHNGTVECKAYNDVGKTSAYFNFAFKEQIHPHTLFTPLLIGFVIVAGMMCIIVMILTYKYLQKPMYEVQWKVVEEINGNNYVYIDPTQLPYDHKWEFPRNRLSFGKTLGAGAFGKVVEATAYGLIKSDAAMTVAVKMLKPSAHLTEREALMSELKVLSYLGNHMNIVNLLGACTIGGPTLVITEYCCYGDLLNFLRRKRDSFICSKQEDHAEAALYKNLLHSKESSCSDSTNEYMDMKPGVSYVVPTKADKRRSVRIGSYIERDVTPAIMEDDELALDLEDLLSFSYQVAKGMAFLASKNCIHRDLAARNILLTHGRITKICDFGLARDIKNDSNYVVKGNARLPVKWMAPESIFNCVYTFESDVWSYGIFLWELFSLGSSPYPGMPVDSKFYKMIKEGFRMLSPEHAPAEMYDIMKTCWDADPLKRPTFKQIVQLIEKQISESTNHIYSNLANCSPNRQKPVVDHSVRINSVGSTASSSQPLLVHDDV
T2 sequence (P10721 other isoform, or with tags, fused parts or gaps limits assumed): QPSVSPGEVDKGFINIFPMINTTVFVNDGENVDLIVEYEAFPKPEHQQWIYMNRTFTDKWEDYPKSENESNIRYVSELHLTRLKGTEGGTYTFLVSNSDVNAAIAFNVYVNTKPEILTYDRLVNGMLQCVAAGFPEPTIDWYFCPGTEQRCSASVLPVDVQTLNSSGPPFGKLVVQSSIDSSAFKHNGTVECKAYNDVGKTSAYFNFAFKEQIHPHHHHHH

B1: IgG version of Fab antibody Ab1 (antibody, V domains shown)
VH: EVQLLESGGGLVQPGGSLRLSCAASGFTFSNYLMSWVRQAPGKGLEWVSSIVPSGGFTHYADSVKGRFTISRDNSKNTLYLQMNSLRAEDTAVYYCARLQTGSWRVHAFDIWGQGTMVTVSS
VL: DIQMTQSPTSLSAFVGDRVTITCQASQDIGNYLNWYQQKSGEPPKLLVYDASFLKKGVPSRFSGSGSGTQYFLTIYSLQPEDFATYFCQHSDNLSVTFGGGTKVEVK
notes: Variable regions of Fab Ab1 cloned into the Dyax pR vector
Consider B1, for which, in assay [1], the “IC50 of inhibition of KIT phosphorylation (phospho-KIT assay)” value is ~2.5 nM. Further, the EC50 in assay [2] was ~0.007 nM.

B2: Antibody Ab1 conjugated with the fluorescent dye Alexa-488 (antibody, V domains shown)
VH: B1 VH
VL: B1 VL
modifications: conjugated with the fluorescent dye Alexa-488 (chain and site not stated)
notes: also called Ab1-Alexa488
With B2, the binding result in assay [3] is on record as “binds”.
